Assay results as given in patent publication US20230235004A1 (published 2023).
Changes are numbered by the printed parent chain.

B1: MAdCAM antibody Table 1 clone 33 (scFv)
scFv: QVQLVQSGAEVKKPGASVKVSCKASGYTFTSYGISWVRQAPGQGLEWMGWMHPKSGDTGLTQKFQGRVTMTRDTSTSTVYMELSSLRSEDTAVYYCARDTPYYYYGMDVWGQGTTVTVSSGGGGSGGGGSGGGGSGGGGSDIQMTQSPSSLSASVGDRVTITCRASQSISSWLAWYQQKPGKAPKLLIYAASSLQSGVPSRFSGSGSGTDFTLTISSLQPEDFATYYCQQSYSVPITFGQGTKVEIK
B2: MAdCAM antibody Table 1 clone 35 (scFv)
scFv: EVQLLESGGGLVQPGGSLRLSCAASGFSFSSYTMNWVRQAPGKGLEWVSFITSSSRTIYYADSVKGRFTISRDNSKNTLYLQMNSLRAEDTAVYYCARDRRGDYGDSWYFDLWGRGTLVTVSSGGGGSGGGGSGGGGSGGGGSEIVMTQSPATLSVSPGERATLSCRASQSVRNYLAWYQQKPGQAPRLLIYGASTRATGIPARFSGSGSGTEFTLTISSLQSEDFAVYYCQQYGSSPLTFGGGTKVEIK
B3: MAdCAM antibody Table 1 clone 37 (scFv)
scFv: QVQLVQSGAEVKKPGASVKVSCKASGYTFSKHFVHWVRQAPGQGLEWMGWMNPNSGNSGYAQKFQGRVTMTRDTSTSTVYMELSSLRSEDTAVYYCARGEGGYYYYGMDVWGQGTLVTVSSGGGGSGGGGSGGGGSGGGGSDIQMTQSPSSLSASVGDRVTITCRASQSISSWLAWYQQKPGKAPKLLIYAASTLQSGVPSRFSGSGSGTDFTLTISSLQPEDFATYYCQQSYSTPWTFGQGTKVEIK
B4: MAdCAM antibody Table 1 clone 38 (scFv)
scFv: EVQLLESGGGLVQPGGSLRLSCAASGFTFGSYSMSWVRQAPGKGLEWVSAIGTGGGTYYADSVKGRFTISRDNSKNTLYLQMNSLRAEDTAVYYCAKGTPYYYYYGMDVWGQGTMVTVSSGGGGSGGGGSGGGGSGGGGSDIQMTQSPSSLSASVGDRVTITCRASQPLSNWLAWYQQKPGKAPKLLIYAASSLQSGVPSRFSGSGSGTDFTLTISSLQPEDFATYYCQQAISFPLTFGGGTKVEIK
B5: MAdCAM antibody Table 1 clone 39 (scFv)
scFv: QVQLVQSGAEVKKPGASVKVSCKASGYTFTSYYMHWVRQAPGQGLEWMGWMNPNSGNTGYAQKFQGRVTMTRDTSTSTVYMELSSLRSEDTAVYYCARDLGYYDSSGYFGAFDIWGQGTTVTVSSGGGGSGGGGSGGGGSGGGGSDIQMTQSPSSLSASVGDRVTITCQSSEDISSSLNWYQQKPGKAPKLLIYAASSLQIGVPSRFSGSGSGTDFTLTISSLQPEDFATYYCQQTYSTPYTFGQGTKVEIK
B6: MAdCAM antibody Table 1 clone 40 (scFv)
scFv: QVQLVQSGAEVKKPGASVKVSCKASGYTFTSYGISWVRQAPGQGLEWMGIINPRGGSTIFAQKFQGRVTMTRDTSTSTVYMELSSLRSEDTAVYYCARGTRSSGWYGWFDPWGQGTLVTVSSGGGGSGGGGSGGGGSGGGGSDIQMTQSPSSLSASVGDRVTITCRASQGIGNWLAWYQQKPGKAPKLLIYAASNLETGVPSRFSGSGSGTDFTLTISSLQPEDFATYYCQQIHSYPLTFGGGTKVEIK
B7: MAdCAM antibody Table 1 clone 42 (scFv)
scFv: QVQLVQSGAEVKKPGSSVKVSCKASGGTLSRYGVSWVRQAPGQGLEWMGGIIPIFGTTNYAQKFQGRVTITADESTSTAYMELSSLRSEDTAVYYCARDRVYYDSSGYPTWYFDLWGRGTLVTVSSGGGGSGGGGSGGGGSGGGGSEIVMTQSPATLSVSPGERATLSCRASQSVSSSYLAWYQQKPGQAPRLLIYGASTRATGIPARFSGSGSGTEFTLTISSLQSEDFAVYYCQQYGSSPITFGQGTKVEIK
B8: MAdCAM antibody Table 1 clone 43 (scFv)
scFv: EVQLLESGGGLVQPGGSLRLSCAASGFTFDDFAMHWVRQAPGKGLEWVSGISGNGDSRYYADSVKGRFTISRDNSKNTLYLQMNSLRAEDTAVYYCARDASYGGNYGMDVWGQGTTVTVSSGGGGSGGGGSGGGGSGGGGSDIQMTQSPSSLSASVGDRVTITCQASQDIRNYLNWYQQKPGKAPKLLIYKASTLESGVPSRFSGSGSGTDFTLTISSLQPEDFATYYCQQANSFPLTFGPGTKVDIK
B9: MAdCAM antibody Table 1 clone 56 (scFv)
scFv: EVQLLESGGGLVQPGGSLRLSCAASGFTFDDYAMHWVRQAPGKGLEWVSAISGGGEDTYYADSVKGRFTISRDNSKNTLYLQMNSLRAEDTAVYYCARDASYGGNYGMDVWGQGTTVTVSSGGGGSGGGGSGGGGSGGGGSDIQMTQSPSSLSASVGDRVTITCQASQDIRNYLNWYQQKPGKAPKLLIYKASSLESGVPSRFSGSGSGTDFTLTISSLQPEDFATYYCQQANSYPVTFGGGTKVEIK
B10: MAdCAM antibody Table 1 clone 44 (scFv)
scFv: EVQLVESGGGLVKPGGSLRLSCAASGFTFSSYWMSWVRQAPGKGLEWVSAIGTGGGTYYAAPVKGRFTISRDDSKNTLYLQMNSLKTEDTAVYYCAREWLVPYYGMDVWGQGTTVTVSSGGGGSGGGGSGGGGSGGGGSDIQMTQSPSSLSASVGDRVTITCRASQSISRWLAWYQQKPGKAPKLLIYGASNLQSGVPSRFSGSGSGTDFTLTISSLQPEDFATYYCQQSYSTPWTFGQGTKVEIK
B11: MAdCAM antibody Table 1 clone 45 (scFv)
scFv: EVQLLESGGGLVQPGGSLRLSCAASGFSVSSNYMSWVRQAPGKGLEWVAGISYDGSSKPYADSVKGRFTISRDNSKNTLYLQMNSLRAEDTAVYYCARSRGIAARPLQHWGQGTLVTVSSGGGGSGGGGSGGGGSGGGGSDIVMTQSPDSLAVSLGERATINCKSSQSVLYSSNNKNYLAWYQQKPGQPPKLLIYWASTRQSGVPDRFSGSGSGTDFTLTISSLQAEDVAVYYCHQYYGHPPTFGGGTKVEIK
B12: MAdCAM antibody Table 1 clone 46 (scFv)
scFv: B11 scFv with W196Q
B13: MAdCAM antibody Table 1 clone 47 (scFv)
scFv: EVQLLESGGGLVQPGGSLRLSCAASGFSFSDYGMHWVRQAPGKGLEWVSAISGSGGSTYYADSVKGRFTISRDNSKNTLYLQMNSLRAEDTAVYYCARDGGWQPAAILDYWGQGTLVTVSSGGGGSGGGGSGGGGSGGGGSDIQMTQSPSSLSASVGDRVTITCRASQGISNNLNWYQQKPGKAPKLLIYDASNLETGVPSRFSGSGSGTDFTLTISSLQPEDFATYYCQQSYSTPLTFGGGTKVEIK
B14: MAdCAM antibody Table 1 clone 48 (scFv)
scFv: EVQLLESGGGLVQPGGSLRLSCAASGFTFSDHGMHWVRQAPGKGLEWVSVIYGGESTYYADSVKGRFTISRDNSKNTLYLQMNSLRAEDTAVYYCARDPAVAGGGIFDYWGQGTLVTVSSGGGGSGGGGSGGGGSGGGGSDIQMTQSPSSLSASVGDRVTITCRASQGISNYLAWYQQKPGKAPKLLIYDASNLETGVPSRFSGSGSGTDFTLTISSLQPEDFATYYCQQSYSTCYTFGQGTKLEIK

The binders below were run against T1, human MAdCAM expressed on cells (human, UniProt Q13477 19-382) (assay: cell binding).
T1 construct: whole, on cells
T1 sequence (looked up): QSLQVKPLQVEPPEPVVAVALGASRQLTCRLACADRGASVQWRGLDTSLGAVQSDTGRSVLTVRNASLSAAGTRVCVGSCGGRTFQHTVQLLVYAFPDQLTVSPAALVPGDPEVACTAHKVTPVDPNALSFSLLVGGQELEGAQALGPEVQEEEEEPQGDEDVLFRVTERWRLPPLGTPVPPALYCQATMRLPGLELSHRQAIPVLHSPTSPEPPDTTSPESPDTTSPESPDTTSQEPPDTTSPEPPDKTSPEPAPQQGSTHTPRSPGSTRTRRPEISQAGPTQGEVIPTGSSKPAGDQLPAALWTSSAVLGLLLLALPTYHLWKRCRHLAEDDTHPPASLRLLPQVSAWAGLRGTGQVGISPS
B1: binds. B2: binds. B3: binds. B4: binds. B5: binds. B6: binds. B7: binds. B8: binds. B9: binds. B10: binds. B11: binds. B12: binds. B13: binds. B14: binds.

The binders below were run against T2, mouse MAdCAM expressed on cells (mouse, UniProt Q61826 22-405) (assay: cell binding).
T2 construct: whole, on cells
T2 sequence (looked up): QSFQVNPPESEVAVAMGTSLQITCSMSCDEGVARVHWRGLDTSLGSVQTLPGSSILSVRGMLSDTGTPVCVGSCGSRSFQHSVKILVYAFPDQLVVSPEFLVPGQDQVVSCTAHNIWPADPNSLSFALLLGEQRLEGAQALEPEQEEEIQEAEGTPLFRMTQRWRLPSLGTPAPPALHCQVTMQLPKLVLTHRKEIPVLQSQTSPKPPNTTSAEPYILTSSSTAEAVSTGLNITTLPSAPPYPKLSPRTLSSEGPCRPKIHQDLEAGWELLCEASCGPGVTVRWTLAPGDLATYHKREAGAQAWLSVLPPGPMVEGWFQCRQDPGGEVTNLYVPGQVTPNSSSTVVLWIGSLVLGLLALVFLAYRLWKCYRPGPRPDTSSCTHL
B1: no binding. B2: no binding. B3: no binding. B4: no binding. B5: no binding. B6: no binding. B7: no binding. B8: no binding. B9: no binding. B10: no binding. B11: no binding. B12: no binding. B13: no binding. B14: no binding.
